In patent CN109879966A (PERSONGEN BIOMEDICINE SUZHOU CO LTD, dated 2019):

B1: HM1711091-T4L2H2 (antibody, V domains shown)
VH: QVTLRESGPALVKPTQTLTLTCTFSGVSLPDYGVSWIRQPPGKALEWLAVIWGSETTYYNSALKSRLTISKDTSKNQVVLTMTNMDPVDTATYYCAKHYYYGGSYAMDYWGQGTTVTVSS
VL: EIVLTQSPATLSLSPGERATLSCRASQDISKYLNWYQQKPGQAPRLLIYHTSRLHSGIPDRFSGSGSGTDFTLTISRLEPEDIAVYYCQQGNTLPYTFGQGTKLEI
notes: Full antibody (全抗) used in the Biacore assay; also called 人源化单抗T4L2H2; 人源化T4L2H2抗体
B2: HM1711091-T1L1H4 (antibody, V domains shown)
VH: QVQLQESGPGLVAPSETLSLTCTVSGVSLPDYGVSWIRQPPRKGLEWIGVIWGSETTYYNSALKSRVTISVDTSKNQFSLKLSSVTAADTAVYYCAKHYYYGGSYAMDYWGQGTLVTVSS
VL: DIQMTQSPSSLSASVGDRVTITCRASQDISKYLNWYQQKPGKAPKLLIYHTSRLHSGVPSRFSGSGSGTDFTFTISSLQPEDIATYYCQQGNTLPYTFGGGTKVEI
notes: Full antibody (全抗) used in the Biacore assay; also called 人源化单抗T1L1H4; 人源化T1L1H4抗体

Target: T1, CD19 (Biacore ligand coupled to the chip) (UniProt P15391 20-291, limits assumed)
T1 construct: also called 配体:CD19
T1 sequence (looked up): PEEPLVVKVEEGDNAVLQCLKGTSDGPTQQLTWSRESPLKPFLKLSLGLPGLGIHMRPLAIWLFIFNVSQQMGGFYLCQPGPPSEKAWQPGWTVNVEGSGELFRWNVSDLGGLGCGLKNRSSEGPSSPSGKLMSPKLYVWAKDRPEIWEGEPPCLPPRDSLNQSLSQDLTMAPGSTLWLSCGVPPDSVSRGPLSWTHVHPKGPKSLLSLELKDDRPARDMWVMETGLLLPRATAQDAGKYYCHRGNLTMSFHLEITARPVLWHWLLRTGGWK
Assay: Biacore SPR, CD19 coupled to chip, antibody as analyte 3.125-100 ug/ml

Binder	Kd [nM]	koff [s⁻¹]	kon [M⁻¹ s⁻¹]
B1	28.4	0.0028	98600
B2	15.9	0.00441	278000
